How the values were obtained:
Assay in all cases: far-Western, overlay or dot blot; western blot: non-reduced lysate of P. falciparum NF54 iGP2 stage V gametocytes separated by SDS-PAGE, probed with 0.1 µg/mL antibodies for 1 h at RT; HRP anti-human IgG
Conditions in all cases: one partner purified
[1] = biological target: D3-Fc (anti-Pfs48/45 nanobody D3 fused to hinge and Fc of human IgG1) (alpaca)
[2] = biological target: D4-Fc (anti-Pfs48/45 nanobody D4 fused to hinge and Fc of human IgG1) (alpaca)
[3] = biological target: F6-Fc (anti-Pfs48/45 nanobody F6 fused to hinge and Fc of human IgG1) (alpaca)
[4] = biological target: G3-Fc (anti-Pfs48/45 nanobody G3 fused to hinge and Fc of human IgG1) (alpaca)
[5] = biological target: H4-Fc (anti-Pfs48/45 nanobody H4 fused to hinge and Fc of human IgG1) (alpaca)
[6] = biological target: A4-Fc (anti-Pfs48/45 nanobody A4 fused to hinge and Fc of human IgG1) (alpaca)
[7] = biological target: B2-Fc (anti-Pfs48/45 nanobody B2 fused to hinge and Fc of human IgG1) (alpaca)
[8] = biological target: C1-Fc (anti-Pfs48/45 nanobody C1 fused to hinge and Fc of human IgG1) (alpaca)
[9] = biological target: C3-Fc (anti-Pfs48/45 nanobody C3 fused to hinge and Fc of human IgG1) (alpaca)
[10] = biological target: C7-Fc (anti-Pfs48/45 nanobody C7 fused to hinge and Fc of human IgG1) (alpaca)

Measured: binding result

B1: Full-length Pfs48/45 from P. falciparum NF54 iGP2 stage V gametocytes (natural protein)
chain: NNDFCKPSSLNSEISGFIGYKCNFSNEGVHNLKPDMRERRSIFCTIHSYFIYDKIRLIIPKKSSSPEFKILPEKCFQKVYTDYENRVETDISELGLIEYEIEENDTNPNYNERTITISPFSPKDIEFFCFCDNTEKVISSIEGRSAMVHVRVLKYPHNILFTNLTNDLFTYLPKTYNESNFVSNVLEVELNDGELFVLACELINKKCFQEGKEKALYKSNKIIYHKNLTIFKAPFYVTSKDVNTECTCKFKNNNYKIVLKPKYEKKVIHGCNFSSNVSSKHTFTDSLDISLVDDSAHISCNVHLSEPKYNHLVGLNCPGDIIPDCFFQVYQPESEELEPSNIVYLDSQINIGDIEYYEDAEGDDKIKLFGIVGSIPKTTSFTCICKKDKKSAYMTVTID
binds: all assays above
